Earlier results in paper PMC11638072.

Target: Trigger factor (Escherichia coli) (UniProt P0A850)

Sequence of Trigger factor (P0A850 whole entry): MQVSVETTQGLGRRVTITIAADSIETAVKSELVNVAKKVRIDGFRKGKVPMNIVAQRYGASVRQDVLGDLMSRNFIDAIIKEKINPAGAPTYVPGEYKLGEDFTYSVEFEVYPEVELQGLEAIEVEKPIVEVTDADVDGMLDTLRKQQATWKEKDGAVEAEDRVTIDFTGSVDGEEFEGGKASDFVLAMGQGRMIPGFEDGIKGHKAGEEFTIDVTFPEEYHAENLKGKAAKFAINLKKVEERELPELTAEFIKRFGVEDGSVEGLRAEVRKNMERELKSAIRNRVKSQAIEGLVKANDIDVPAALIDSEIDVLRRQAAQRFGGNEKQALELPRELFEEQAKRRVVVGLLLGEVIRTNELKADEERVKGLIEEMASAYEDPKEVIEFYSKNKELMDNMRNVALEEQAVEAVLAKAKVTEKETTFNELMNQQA

Trigger factor (from UniProt P0A850)
Kd: 1 µM
